Experimental data from FireProtDB (doi:10.1021/bi020461s).

B1: Glutamate dehydrogenase, P96110 (parent)
chain: MPEKSLYEMAVEQFNRAASLMDLESDLAEVLRRPKRVLIVEFPVRMDDGHVEVFTGYRVQHNVARGPAKGGIRYHPDVTLDEVKALAFWMTWKTAVMNLPFGGGKGGVRVDPKKLSRNELERLSRRFFSEIQVIIGPYNDIPAPDVNTNADVMAWYMDTYSMNVGHTVLGIVTGKPVELGGSKGREEATGRGVKVCAGLAMDVLGIDPKKATVAVQGFGNVGQFAALLISQELGSKVVAVSDSRGGIYNPEGFDVEELIRYKKEHGTVVTYPKGERITNEELLELDVDILVPAALEGAIHAGNAERIKAKAVVEGANGPTTPEADEILSRRGILVVPDILANAGGVTVSYFEWVQDLQSFFWDLDQVRNALEKMMKGAFNDVMKVKEKYNVDMRTAAYILAIDRVAYATKKRGIYP

Variants of: B1
Settings: Thermotoga maritima (strain ATCC 43589 / DSM 3109 / JCM 10099 / NBRC 100826 / MSB8), pH 7, CD, sodium phosphate 20 mM, reversible: yes, structure 1B26, whole UniProt chain shown

In the case of K194A E232A, the “ddG of mutation (higher = less stable)” value (20 °C, GdnHCl) is reported as -0.92 kcal/mol, the denaturant m value (20 °C, GdnHCl) is reported as 2.73 kcal/mol/M and the “denaturant midpoint (higher = more stable)” value (shortened to “denaturant midpoint”) (20 °C, GdnHCl) is reported as 2.04 M. For the same variant, the unfolding free energy (20 °C, GdnHCl) was 6.04 kcal/mol, the “ddG of mutation (higher = less stable)” value (20 °C, Urea) was -0.51 kcal/mol and the denaturant m value (20 °C, Urea) was 1.42 kcal/mol/M. The “denaturant midpoint” value (20 °C, Urea) was 3.67 M, the unfolding free energy (20 °C, Urea) was 5.36 kcal/mol and the Tm (Thermal) was 71.2 °C. The “change of melting temperature, mutant - wild type (higher = more stable)” value (shortened to “change of melting temperature, mutant”) (Thermal) was 1.7 °C and the “unfolding enthalpy (van 't Hoff)” value (Thermal) was 52.7 kcal/mol.

For R191A K194A, the “ddG of mutation (higher = less stable)” value (20 °C, Urea) was 0.16 kcal/mol, the denaturant m value (20 °C, Urea) was 1.33 kcal/mol/M and the “denaturant midpoint” value (20 °C, Urea) was 3.21 M. The unfolding free energy (20 °C, Urea) was 4.69 kcal/mol, the Tm (Thermal) was 67.5 °C and the “change of melting temperature, mutant” value (Thermal) was -2 °C. The “unfolding enthalpy (van 't Hoff)” value (Thermal) was 53.2 kcal/mol.

For E232A, the “ddG of mutation (higher = less stable)” value (20 °C, GdnHCl) was 0.95 kcal/mol, the denaturant m value (20 °C, GdnHCl) was 3 kcal/mol/M and the “denaturant midpoint” value (20 °C, GdnHCl) was 1.41 M. For the same variant, the unfolding free energy (20 °C, GdnHCl) was 4.17 kcal/mol, the “ddG of mutation (higher = less stable)” value (20 °C, Urea) was 0.35 kcal/mol and the denaturant m value (20 °C, Urea) was 1.6 kcal/mol/M. For the same variant, the “denaturant midpoint” value (20 °C, Urea) was 3.08 M, the unfolding free energy (20 °C, Urea) was 4.5 kcal/mol and the “ddG of mutation (higher = less stable)” value (69.5 °C, Thermal) was 0.17 kcal/mol. For the same variant, the Tm (Thermal) was 68.4 °C, the “change of melting temperature, mutant” value (Thermal) was -1.1 °C and the “unfolding enthalpy (van 't Hoff)” value (Thermal) was 41 kcal/mol.
